From patent US20200231681A1 (CHONG KUN DANG PHARMACEUTICAL, published 2020)
Each block holds one binder with its values, some of them ahead of it.

Assays:
[1] = target: T1, human c-Met ECD (ACROBiosystems, MET-H5227) (human, UniProt P08581 25-932); assay: SPR (BIAcore), antibody captured by anti-human IgG Fc, antigen as analyte, 1:1 Langmuir
T1 construct: extracellular domain; Bought protein
Protocol: (§1) The antibodies were diluted in HBS-EP buffer (0.01 M HEPES pH 7.4, 0.15 M NaCl, 3 mM EDTA and 0.005% (v/v) Surfactant P20) at a concentration of 1-2 μg/ml, after which the resulting antibodies were injected into a CM5 chip with an anti-human Ig Fc fixed thereto at a flow rate of 30 μl/min for 10-120 seconds, and then captured in a range of 150-200 RU. Each antigen was used after being diluted at 10, 5, 2.5, 1.25, 0.625, 0.3125 and 0.15625 nM, after which the resulting antigens were sequentially injected from a lower concentration. Then, the resulting antigens were injected at a flow rate of 30 μl/min for 5 minutes to carry out binding, after which a running buffer was injected thereinto for 10-15 minutes to carry out a dissociation. 15 μl of 10 mM Glycine-HCl (pH 1.5) was used to revive the chip.

[2] = target: T2, human EGFR ECD strep (ACROBiosystems, EGR-H5285) (human, UniProt P00533 25-645); assay: as above
T2 construct: extracellular domain; Bought protein
Protocol: as §1

[3] = target: T3, cynomolgus monkey c-Met ECD (SiNo. Biological, 90304-CO8H) (cynomolgus monkey, UniProt A0A2K5UM36 25-932); assay: as above
T3 construct: not shown: The vendor's tag
Protocol: as §1

[4] = target: T4, cynomolgus monkey EGFR ECD (SiNo. Biological, 90285-008B) (cynomolgus monkey); assay: as above
T4 construct: extracellular domain
Protocol: as §1

[5] = target: T5, mouse EGFR (SiNo. Biological Inc, 51091-M08H) (mouse, UniProt Q01279 25-647); assay: ELISA, antigen coated at 2 µg/ml, antibody 6.4 pM to 100 nM, anti-human IgG F(ab')2-HRP, TMB, O.D. at 450 nm [panel Mouse EGFR]
T5 construct: extracellular domain
Protocol: (§2) Particularly, mouse c-Met (SiNo. Biological Inc, 50622-M08H), cynomolgus monkey c-Met (SiNo. Biological Inc, 90304-CO8H), human c-Met (R&D Systems, 358-MT), mouse EGFR (SiNo. Biological Inc, 51091-M08H), cynomolgus monkey EGFR (SiNo. Biological, 90285-008B) and human EGFR (Abcam, 155639) antigens were all divided into a 96-well plate at a concentration of 2 μg/ml, after which the resulting plate was reacted at 4° C. overnight.
(§3) Color development was made by using TMB (Sigma, T4444) solution, wherein its value was measured at an optical density of 450 nm and its ELISA results are shown in FIG. 9.

[6] = target: T6, mouse c-Met (SiNo. Biological Inc, 50622-M08H) (mouse, UniProt P16056 25-931); assay: ELISA, antigen coated at 2 µg/ml, antibody 6.4 pM to 100 nM, anti-human IgG F(ab')2-HRP, TMB, O.D. at 450 nm [panel Mouse cMet]
T6 construct: extracellular domain
Protocol: as §2, §3

Kd [1]: 0.0999 nM
koff [1]: 8.3e-05 s⁻¹
kon [1]: 831000 M⁻¹ s⁻¹
B1: hu8C4 AH71 (antibody, V domains shown)
VH: EVQLVESGGGLVQPGGSLRLSCAASGYTFSDYYINWVRQAPGKGLEWIGEIFPGWGNTHFSARFKGRATLSADKSKNTAYLQMNSLRAEDTAVYYCAGQDYGFLYWGQGTLVTVSS
VL: DIQMTQSPSSLSASVGDRVTITCGASENIYGALNWYQQKPGKAPKLLIYGATNLADGVPSRFSGSGSGRDFTFTISSLQPEDIATYYCQNVLSSPYTFGQGTKVEIK

Kd [1]: 0.278 nM
koff [1]: 0.000204 s⁻¹
kon [1]: 734000 M⁻¹ s⁻¹
Kd [2]: 1.62 nM
koff [2]: 0.000126 s⁻¹
kon [2]: 77800 M⁻¹ s⁻¹
Kd [3]: 0.434 nM
koff [3]: 0.000337 s⁻¹
kon [3]: 777000 M⁻¹ s⁻¹
Kd [4]: 0.894 nM
koff [4]: 0.000127 s⁻¹
kon [4]: 142000 M⁻¹ s⁻¹
binding result [5]: no binding (tested: 100 nM)
binding result [6]: no binding (tested: 100 nM)
B2: hu8C4 × Vectibix scFv bispecific antibody (bispecific antibody, human IgG2)
heavy: not shown
VL: B1 VL
